Data taken from PMC13044922, “Molecular structure and nickel-binding capacity of Proteus mirabilis UreE” (Acta Crystallographica Section D: Structural Biology, 2026).

Biological target: the molecule itself
Experiment: SEC; HiLoad 16/600 Superdex 75, 20 mM HEPES pH 7.5, 100 mM NaCl with or without 1 mM EDTA, 277 K; elution volume compared with molecular weight

Protein	stoichiometry N
Proteus mirabilis UreE (natural protein, Cloned from strain ATCC 12453; In the crystal the models end at residue 147 (chain A) and 144 (chain B); the C-terminal tails are not resolved; also called PmUreE; full-length PmUreE) MKKFTQIIDQQKALELTSTEKPKLTLCLTMDERTKSRLKVALSDGQEAGLFLPRGTVLKEGDILLSEEGDVVTIEAAKEQVSTVYSDDPLLLARVCYHLGNRHVPLQIEAGWCRYFHDHVLDDMARGLGATVVVGLEKYQPEPGAYGGSSGGHHHHHDHHH	~2
PmUreE-ΔC17 (domain or fragment, UreE of Proteus mirabilis ATCC 12453 with a stop codon inserted after Gly144 (lacks the last 17 residues, the histidine-rich C-terminus); Made from the full-length construct of m1 by a stop codon after Gly144; also called PmUreE-ΔC17 truncation mutant; C-terminally truncated mutant of PmUreE; source: E. coli BL21 (DE3), purified (Ni-NTA, SEC)) MKKFTQIIDQQKALELTSTEKPKLTLCLTMDERTKSRLKVALSDGQEAGLFLPRGTVLKEGDILLSEEGDVVTIEAAKEQVSTVYSDDPLLLARVCYHLGNRHVPLQIEAGWCRYFHDHVLDDMARGLGATVVVGLEKYQPEPG	2
